The values that follow come from patent US7803904 (Takeda / Millennium, dated 2010).

Experiment [1] concerns the target T1, human α4β7 integrin (human, UniProt P13612 34-1032; P26010 20-798).
T1 construct: whole, on cells; also called α4β7 on RPMI 8866 cells; α4β7 on HuT 78 cells
The experiment can be described thus: cell adhesion, FIG. 5 legend. On the procedure:
Clone pcD3huMAd4 (insert from clone 4) or pcD3huMAd20 (insert from clone 20) was transiently transfected into CHO/P cells.
Adhesion of the CHO/P transfectants to RPMI 8866 cells was blocked by preincubation with anti-α4β7 MAb ACT-1, but not by control IgG. […] To further characterize these distinct cDNAs, both clones were completely sequenced.

In experiment [2] the target is T2, murine α4β7 integrin (mouse, UniProt Q00651 41-1039; P26011 20-806).
T2 construct: whole, on cells; Carried by the murine T cell lymphoma TK1; also called α4β7 on TK1 cells
T2 sequence (Q00651 41-1039, chain 1 of 2): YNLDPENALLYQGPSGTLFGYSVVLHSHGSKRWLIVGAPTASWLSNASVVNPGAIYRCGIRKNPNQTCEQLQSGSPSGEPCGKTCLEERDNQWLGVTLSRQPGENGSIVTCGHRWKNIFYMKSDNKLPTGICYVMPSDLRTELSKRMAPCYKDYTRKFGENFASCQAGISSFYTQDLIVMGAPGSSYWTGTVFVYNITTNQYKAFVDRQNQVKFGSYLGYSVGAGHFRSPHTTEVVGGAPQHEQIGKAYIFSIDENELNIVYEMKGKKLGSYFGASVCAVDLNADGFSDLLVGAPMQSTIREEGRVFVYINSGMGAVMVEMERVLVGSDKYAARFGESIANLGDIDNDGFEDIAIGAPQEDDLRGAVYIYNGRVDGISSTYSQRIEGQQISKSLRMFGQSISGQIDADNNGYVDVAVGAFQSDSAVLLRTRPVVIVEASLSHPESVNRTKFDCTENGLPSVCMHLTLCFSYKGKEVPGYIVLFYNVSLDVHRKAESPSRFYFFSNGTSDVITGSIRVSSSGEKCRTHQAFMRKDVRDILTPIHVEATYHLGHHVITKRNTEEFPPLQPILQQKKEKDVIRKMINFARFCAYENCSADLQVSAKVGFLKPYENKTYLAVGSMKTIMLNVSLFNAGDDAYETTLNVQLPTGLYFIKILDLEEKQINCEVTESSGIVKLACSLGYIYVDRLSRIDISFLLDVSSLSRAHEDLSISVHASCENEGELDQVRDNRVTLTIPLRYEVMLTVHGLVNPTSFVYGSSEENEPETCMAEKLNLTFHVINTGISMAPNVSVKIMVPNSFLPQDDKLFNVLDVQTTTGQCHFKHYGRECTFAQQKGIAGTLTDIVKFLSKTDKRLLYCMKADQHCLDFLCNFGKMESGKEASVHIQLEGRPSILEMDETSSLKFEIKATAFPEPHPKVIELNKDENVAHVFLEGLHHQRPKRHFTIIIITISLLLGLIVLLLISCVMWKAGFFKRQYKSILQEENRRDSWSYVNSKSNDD
T2 sequence (P26011 20-806, chain 2 of 2): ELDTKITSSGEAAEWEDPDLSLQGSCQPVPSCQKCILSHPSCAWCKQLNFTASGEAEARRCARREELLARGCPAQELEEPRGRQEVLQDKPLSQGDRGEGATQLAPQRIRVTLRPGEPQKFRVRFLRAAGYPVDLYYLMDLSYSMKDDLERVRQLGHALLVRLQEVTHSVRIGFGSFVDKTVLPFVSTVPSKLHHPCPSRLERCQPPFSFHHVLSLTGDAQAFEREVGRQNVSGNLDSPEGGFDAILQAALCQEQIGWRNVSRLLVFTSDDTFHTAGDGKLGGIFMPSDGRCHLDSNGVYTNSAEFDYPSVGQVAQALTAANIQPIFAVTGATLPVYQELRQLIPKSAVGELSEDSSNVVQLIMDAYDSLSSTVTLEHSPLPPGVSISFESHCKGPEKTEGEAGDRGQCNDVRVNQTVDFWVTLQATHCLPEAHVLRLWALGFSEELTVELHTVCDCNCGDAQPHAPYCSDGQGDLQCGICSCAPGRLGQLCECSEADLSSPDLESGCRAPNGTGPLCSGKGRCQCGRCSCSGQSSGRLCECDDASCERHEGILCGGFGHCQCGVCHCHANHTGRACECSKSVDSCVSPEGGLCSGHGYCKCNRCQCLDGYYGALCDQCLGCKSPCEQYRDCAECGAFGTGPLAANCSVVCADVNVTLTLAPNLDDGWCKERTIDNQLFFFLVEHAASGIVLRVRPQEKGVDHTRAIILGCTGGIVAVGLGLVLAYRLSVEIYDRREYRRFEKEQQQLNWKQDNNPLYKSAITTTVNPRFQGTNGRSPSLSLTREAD
The experiment can be described thus: cell adhesion, CHO/P transient transfectants.

The target of experiment [3] is T3, human α4β1 integrin (human, UniProt P13612 34-1032; P05556 21-798).
T3 construct: whole, on cells; Carried by Jurkat and Ramos cells (α4β1, not α4β7); also called α4β1 on Jurkat cells; α4β1 on Ramos cells
T3 sequence (P13612 34-1032, chain 1 of 2): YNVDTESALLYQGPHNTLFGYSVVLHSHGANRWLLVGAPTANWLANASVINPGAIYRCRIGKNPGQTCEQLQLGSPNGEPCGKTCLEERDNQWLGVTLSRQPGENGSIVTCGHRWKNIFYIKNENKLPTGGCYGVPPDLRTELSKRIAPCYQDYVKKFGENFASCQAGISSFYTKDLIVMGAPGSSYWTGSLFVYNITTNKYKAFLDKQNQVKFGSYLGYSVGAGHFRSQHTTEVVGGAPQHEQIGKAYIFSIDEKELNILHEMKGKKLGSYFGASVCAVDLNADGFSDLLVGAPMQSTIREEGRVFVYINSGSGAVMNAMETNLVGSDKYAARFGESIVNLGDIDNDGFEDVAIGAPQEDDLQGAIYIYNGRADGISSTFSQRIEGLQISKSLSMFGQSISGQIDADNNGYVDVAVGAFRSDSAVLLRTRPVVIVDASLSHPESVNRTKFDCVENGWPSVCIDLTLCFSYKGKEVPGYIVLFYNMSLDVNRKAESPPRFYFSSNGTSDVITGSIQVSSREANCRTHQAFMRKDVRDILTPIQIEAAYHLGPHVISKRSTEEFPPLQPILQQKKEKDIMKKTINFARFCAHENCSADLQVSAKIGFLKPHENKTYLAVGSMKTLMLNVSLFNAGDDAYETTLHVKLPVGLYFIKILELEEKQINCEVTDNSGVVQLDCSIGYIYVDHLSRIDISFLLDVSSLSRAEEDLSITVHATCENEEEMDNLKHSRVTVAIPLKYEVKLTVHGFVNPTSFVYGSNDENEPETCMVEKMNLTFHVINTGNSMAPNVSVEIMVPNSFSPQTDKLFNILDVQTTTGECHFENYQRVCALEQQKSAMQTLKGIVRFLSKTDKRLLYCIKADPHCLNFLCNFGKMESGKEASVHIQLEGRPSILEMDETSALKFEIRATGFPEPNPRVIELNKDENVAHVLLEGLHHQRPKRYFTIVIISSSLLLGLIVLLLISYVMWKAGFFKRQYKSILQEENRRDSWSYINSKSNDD
T3 sequence (P05556 21-798, chain 2 of 2): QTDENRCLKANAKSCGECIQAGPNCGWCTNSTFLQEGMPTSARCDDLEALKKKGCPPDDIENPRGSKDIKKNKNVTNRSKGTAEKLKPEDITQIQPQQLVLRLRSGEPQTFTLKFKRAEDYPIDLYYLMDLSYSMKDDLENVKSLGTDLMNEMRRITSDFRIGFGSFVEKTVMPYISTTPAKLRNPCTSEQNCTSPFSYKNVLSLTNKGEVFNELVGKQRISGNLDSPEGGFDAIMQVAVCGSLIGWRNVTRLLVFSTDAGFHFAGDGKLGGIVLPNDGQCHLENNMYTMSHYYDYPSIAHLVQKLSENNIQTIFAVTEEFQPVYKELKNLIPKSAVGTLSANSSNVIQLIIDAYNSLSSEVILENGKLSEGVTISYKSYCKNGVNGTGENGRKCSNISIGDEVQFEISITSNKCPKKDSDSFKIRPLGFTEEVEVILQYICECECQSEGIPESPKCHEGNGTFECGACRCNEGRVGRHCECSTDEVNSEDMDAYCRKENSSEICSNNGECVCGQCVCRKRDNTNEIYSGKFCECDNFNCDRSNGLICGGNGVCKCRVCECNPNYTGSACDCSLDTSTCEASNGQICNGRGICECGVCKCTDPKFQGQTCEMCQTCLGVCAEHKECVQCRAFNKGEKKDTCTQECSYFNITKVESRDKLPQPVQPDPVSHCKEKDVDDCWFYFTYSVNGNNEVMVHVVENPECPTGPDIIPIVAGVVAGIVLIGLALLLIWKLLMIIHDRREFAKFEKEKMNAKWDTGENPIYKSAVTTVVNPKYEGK
In words: cell adhesion, FIG. 4B legend. Here is the method: (§1) Where DATK 32 was used in a preincubation with a cell line, prior to the start of the assay, the supernatant or buffer present in the wells (containing the transfectants) was aspirated in order to obtain volume of 0.5 ml total for the adhesion assay.
(§2) Assays were fixed as described above. Plates were washed by gentle inversion in a large beaker of phosphate buffered saline (PBS), followed by inversion in a beaker of PBS with 1.5% gluteraldehyde for fixation for a minimum of 1 hour. Adhesion was assessed by counting both lymphocytes and CHO cells in a field at 20× magnification. For each assay, the number of lymphocytes bound per CHO/P cell was averaged as a minimum of four fields with standard error. Results in each case are from one of three experiments performed with similar results.
(§3) Murine MAdCAM-1 specifically binds lymphocytes expressing α4β7 (and not α4β1). […] Binding of these cell lines was compared to that of transiently transfected CHO/P cells expressing murine MAdCAM-1 and human VCAM-1.

Experiment [4] deals with T1, human α4β7 integrin. In words: cell adhesion assay, CHO/P transfectants.
The target of experiment [5] is T2, murine α4β7 integrin. The experiment can be described thus: cell adhesion, L1-2 stable transfectants.
The target in experiment [6] is T3, human α4β1 integrin. In words: functional adhesion assay, CHO/P transfectants, 4° C (FIG. 4B). Here is the method:
as §1, §2, §3

For experiment [7], the target named is T3, human α4β1 integrin. In words: cell adhesion assay, CHO/P transfectants.
The target of experiment [8] is T1, human α4β7 integrin. In words: cell adhesion, FIG. 4A. Here is the method:
as §1, §2, §3

T1 sequence (P13612 34-1032, chain 1 of 2): as the sequence (P13612 34-1032, chain 1 of 2) above
T1 sequence (P26010 20-798, chain 2 of 2): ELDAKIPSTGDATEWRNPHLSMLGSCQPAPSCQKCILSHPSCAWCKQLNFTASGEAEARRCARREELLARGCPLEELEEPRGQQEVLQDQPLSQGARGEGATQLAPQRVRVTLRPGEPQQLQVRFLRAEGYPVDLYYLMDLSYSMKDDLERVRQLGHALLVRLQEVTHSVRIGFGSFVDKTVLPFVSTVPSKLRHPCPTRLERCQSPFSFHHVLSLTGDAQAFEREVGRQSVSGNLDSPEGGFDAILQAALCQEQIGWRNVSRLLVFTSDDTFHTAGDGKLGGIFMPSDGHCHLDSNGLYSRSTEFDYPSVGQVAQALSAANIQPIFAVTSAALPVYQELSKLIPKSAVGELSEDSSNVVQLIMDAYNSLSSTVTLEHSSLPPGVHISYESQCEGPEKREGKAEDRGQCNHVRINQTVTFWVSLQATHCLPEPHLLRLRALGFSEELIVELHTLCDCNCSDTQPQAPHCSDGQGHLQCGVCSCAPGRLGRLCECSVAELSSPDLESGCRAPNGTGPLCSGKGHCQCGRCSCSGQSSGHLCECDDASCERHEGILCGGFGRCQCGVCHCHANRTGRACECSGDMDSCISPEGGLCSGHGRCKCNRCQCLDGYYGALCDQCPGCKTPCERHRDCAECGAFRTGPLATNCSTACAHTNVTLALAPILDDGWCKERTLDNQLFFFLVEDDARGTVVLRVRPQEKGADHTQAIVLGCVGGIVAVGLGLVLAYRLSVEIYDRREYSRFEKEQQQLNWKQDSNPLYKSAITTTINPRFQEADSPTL

B1: human MAdCAM-1 (cDNA clone 20) (receptor)
chain: QSLQVKPLQVEPPEPVVAVALGASRQLTCRLACADRGASVQWRGLDTSLGAVQSDTGRSVLTVRNASLSAAGTRVCVGSCGGRTFQHTVQLLVYAFPDQLTVSPAALVPGDPEVACTAHKVTPVDPNALSFSLLVGGQELEGAQALGPEVQEEEEEPQGDEDVLFRVTERWRLPPLGTPVPPALYCQATMRLPGLELSHRQAIPVLHSPTSPEPPDTTSPESPDTTSPESPDTTSQEPPDTTSPEPPDKTSPEPAPQQGSTHTPRSPGSTRTRRPEISQAGPTQGEVIPTGSSKPAGDQLPAALWTSSAVLGLLLLALPTYHLWKRCRHLAEDDTHPPASLRLLPQVSAWAGLRGTGQVGISPS
notes: Isoform with a shorter mucin domain, expressed on CHO/P cells; also called pcD3huMAd20
Consider B1, for which the binding result in experiment [1] and in experiment [2] was “binds” throughout.

B2: seven domain human VCAM-1 (receptor, UniProt P19320 25-739, looked up)
chain: FKIETTPESRYLAQIGDSVSLTCSTTGCESPFFSWRTQIDSPLNGKVTNEGTTSTLTMNPVSFGNEHSYLCTATCESRKLEKGIQVEIYSFPKDPEIHLSGPLEAGKPITVKCSVADVYPFDRLEIDLLKGDHLMKSQEFLEDADRKSLETKSLEVTFTPVIEDIGKVLVCRAKLHIDEMDSVPTVRQAVKELQVYISPKNTVISVNPSTKLQEGGSVTMTCSSEGLPAPEIFWSKKLDNGNLQHLSGNATLTLIAMRMEDSGIYVCEGVNLIGKNRKEVELIVQEKPFTVEISPGPRIAAQIGDSVMLTCSVMGCESPSFSWRTQIDSPLSGKVRSEGTNSTLTLSPVSFENEHSYLCTVTCGHKKLEKGIQVELYSFPRDPEIEMSGGLVNGSSVTVSCKVPSVYPLDRLEIELLKGETILENIEFLEDTDMKSLENKSLEMTFIPTIEDTGKALVCQAKLHIDDMEFEPKQRQSTQTLYVNVAPRDTTVLVSPSSILEEGSSVNMTCLSQGFPAPKILWSRQLPNGELQPLSENATLTLISTKMEDSGVYLCEGINQAGRSRKEVELIIQVTPKDIKLTAFPSESVKEGDTVIISCTCGNVPETWIILKKKAETGDTVLKSIDGAYTIRKAQLKDAGVYECESKNKVGSQLRSLTLDVQGRENNKDYFSPELLVLYFASSLIIPAIGMIIYFARKANMKGSYSLVEAQKSKV
notes: whole, on cells; Transiently expressed on CHO/P cells; also called pCD3VCAM
Regarding B2, the binding result in experiment [3] is listed as “binds”; in experiment [4], “no binding”.

B3: human MAdCAM-1 (cDNA clone 4) (receptor)
chain: QSLQVKPLQVEPPEPVVAVALGASRQLTCRLACADRGASVQWRGLDTSLGAVQSDTGRSVLTVRNASLSAAGTRVCVGSCGGRTFQHTVQLLVYAFPDQLTVSPAALVPGDPEVACTAHKVTPVDPNALSFSLLVGGQELEGAQALGPEVQEEEEEPQGDEDVLFRVTERWRLPPLGTPVPPALYCQATMRLPGLELSHRQAIPVLHSPTSPEPPDTTSPEPPNTTSPESPDTTSPESPDTTSQEPPDTTSQEPPDTTSQEPPDTTSPEPPDKTSPEPAPQQGSTHTPRSPGSTRTRRPEISQAGPTQGEVIPTGSSKPAGDQLPAALWTSSAVLGLLLLALPTYHLWKRCRHLAEDDTHPPASLRLLPQVSAWAGLRGTGQVGISPS
notes: also called pcD3huMAd4; pCDhuMAd4
As to B3, the binding result is on record as “binds” in experiment [1], “binds” in experiment [5] and “no binding” in experiment [6].

B4: macaque MAdCAM-1 (cDNA clone 31D) (receptor)
chain: QSLQVKPLQVEPPEPVVAVALGASRQLTCRLDCADRGATVQWRGLDTSLGAVQSDAGRSVLTVRNASLSAAGTRVCVGSCGGRTFQHTVRLLVYAFPDQLTISPAALVPGDPEVACTAHKVTPVDPNALSFSLLLGDQELEGAQALGPEVEEEEEEPQEEEDVLFRVTERWRLPTLATPVLPALYCQATMRLPGLELSHRQAIPVLHGPTSREPPDTTSPEPRAATSPETTPQQGSTHSPRSPGSTRTCRPEISQAGPTQGEVIPTGSSKPTGDQLPAALWTSSAVLGLLLLALPTYHLWKRCRHLAEDGAHPPASLSSQPFPL
notes: Expressed on CHO/P or L1-2 cells; also called pcD3pMAd; pCD3PMad
In the case of B4, in experiment [7], the binding result is “no binding”.

B5: murine MAdCAM-1 (receptor, mouse, UniProt Q61826 22-405, looked up)
chain: QSFQVNPPESEVAVAMGTSLQITCSMSCDEGVARVHWRGLDTSLGSVQTLPGSSILSVRGMLSDTGTPVCVGSCGSRSFQHSVKILVYAFPDQLVVSPEFLVPGQDQVVSCTAHNIWPADPNSLSFALLLGEQRLEGAQALEPEQEEEIQEAEGTPLFRMTQRWRLPSLGTPAPPALHCQVTMQLPKLVLTHRKEIPVLQSQTSPKPPNTTSAEPYILTSSSTAEAVSTGLNITTLPSAPPYPKLSPRTLSSEGPCRPKIHQDLEAGWELLCEASCGPGVTVRWTLAPGDLATYHKREAGAQAWLSVLPPGPMVEGWFQCRQDPGGEVTNLYVPGQVTPNSSSTVVLWIGSLVLGLLALVFLAYRLWKCYRPGPRPDTSSCTHL
notes: whole, on cells; Transiently expressed on CHO/P cells; also called pCDMAD-7
Consider B5, for which the binding result in experiment [8] was “binds”; in experiment [6] it was “no binding”.
